Data on 41 sequences can be found in the nanobody polyreactivity screen of Harvey et al. (2022).

This series can be described thus: yeast display, Sf9 membrane polyspecificity reagent, FACS + sequencing; frameworks hold sequencing errors. Summed up:
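Using colony PCR, genes from sorted yeast display clones were amplified, then sequenced on MiSeq at 2 × 250 and filtered by CDR length. The clones had been stained with 10% biotinylated, detergent-solubilized Sf9 membrane reagent for 1 hour at 4 °C and sorted by FACS into low and high (top ~1%) gates on anti-HA and streptavidin fluorescence. Polyreactivity labels come from the gate of origin.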
On to “QVQLVESGGGLVQAGGSLRLSCAASGFIFRRNVMGWYRQAPGKERELVAAISRSGASTYYADSVKGRFTISRDNAKNTVYLQMNSLKPEDTAVYYCNKRDKVTYSYDYWGQGTQVTVSS”, for which the “polyreactivity (PSR sort gate)” value is “high polyreactivity”.
With “QVQLVESGGGLVQAGGSLRLSCAASGFIFRRYAMGWYRPAPGKVWELVAAITLRGGSTYYADSVKGRFTISRDNAKNTVYLQMNSLKPEATAVYYCAAGVRGQHDGYYWGQGTQETVSS” the entry was “high polyreactivity”.
Next, “QVQLVESGGGLVQAGGSLRLSCAASGFIFRRYAMGWYRQAPGKERELVAAISGSGGRTYYADSVKGRFTISRDNAKNTVYLQMNSLKPEDTAVYYCAATYQYLKSGYYWGQGTQVTVSS”: “high polyreactivity”; “QVQLVESGGGLVQAGGSLRLSCAASGFIFRRYAMGWYRQAPGKERELVAAITWSGGSTYYADSVKGRFTISRDNAKNTVYLQMNSLKPEDTAVYYCNRASLPSVWGYDYWGQGTQVTVSS”: “high polyreactivity”; “QVQLVESGGGLVQAGGSLRLSCAASGFIFRRYAMGWYRQAPGKERELVAIITSGVRTYYADSVKGRFTISRDNAKNTVYLQMNSLKPEDTAVYYCASRVKDYPEYDYWGQGTQVTVSS”: “low polyreactivity”.
As to “QVQLVESGGGLVQAGGSLRLSCAASGFIFRRYAMGWYRQAPGKERELVAVIRSSGGSTYYADSVKGRFTISRDNAKNTVYLQMNSLKPEDTAVYYCAAVDARSGGYYWTLRYYYWGQGTQVTVSS”, the “polyreactivity (PSR sort gate)” value is reported as “high polyreactivity”.
Consider “QVQLVESGGGLVQAGGSLRLSCAASGFIFRRYTMGWYRQAPGKERELVAAISSRGGSTYYADSVKGRFTISRDNAKNTVYLQMNSLKPEDTAVYYCNAGLGVRRRYDYWGQGTQVTVSS”, for which the “polyreactivity (PSR sort gate)” value is “high polyreactivity”.
Next, “QVQLVESGGGLVQAGGSLRLSCAASGFIFRSNAMGLYRQAPGKEREFVAAISSRGGSTTYEDSVKGRFTISRDNAKNTVYLQMNSLKPEDTAVYYCARDWYYYPQYRQRYYYWGQGTQVTVSS”: “high polyreactivity”; “QVQLVESGGGLVQAGGSLRLSCAASGFIFRSYAMGWYRQAPGKERELVAAITHTGTTYYADSVKGRFTISRDNAKNSVYLQMNSLKPEDTAVYYCNANYYRTHYVYWGQGTQVTVSS”: “high polyreactivity”; “QVQLVESGGGLVQAGGSLRLSCAASGFIFRSYAMGWYRQAPGKERELVAANSSSGGRTYYADSVKGRFTISRDNAKNTVYLQMNSLKPEDTAVYYCATSLYTDNSWDNYWGQGTQVTVSS”: “high polyreactivity”.
Next, “QVQLVESGGGLVQAGGSLRLSCAASGFIFRTYAMGWYRQAPGKERELVAAISGTTGSTYYADSVKGRFTISRDNAKYTVYLQMNSLKPEDTAVYFCAADYYWYIRYDYWGQGTQVTVSS”: “low polyreactivity”; “QVQLVESGGGLVQAGGSLRLSCAASGFIFRTYAMGWYRQAPGKERELVAAISRGGGTTYYADSVKGRFTISRDNAKNTVYFQMNSLKPEDTAFYYCAAYSQYLKRDYWGQGTQVTVSS”: “high polyreactivity”; “QVQLVESGGGLVQAGGSLRLSCAASGFIFRTYAMGWYRQEPGKERELVAAITYSAGSTYYADSVKGRFTISRDNAKNTVYLQMNSLKPEDTADYYCNVRKTWYGYSVTGRYDYWGQGTQVTVSS”: “low polyreactivity”.
With “QVQLVESGGGLVQAGGSLRLSCAASGFIFRTYSMGWYRQAPGKERELVAAISGTTGSTYYADSVKGRFTISRDNAKNTVYLQMNRLKPEDTAVYYCAADYYWYIRYDYWGQGTQVTVSS” the entry was “low polyreactivity”.
As for “QVQLVESGGGLVQAGGSLRLSCAASGFIFRVYAMGWYRQAPGKERELVAAMSYSGGSTYYADSVKGRFTISRDNAKNTVYLQMNSLKPEDTAVYYCAAESYVSRYPYGYWGQGTQVTVSS”, the “polyreactivity (PSR sort gate)” value is “high polyreactivity”.
With “QVQLVESGGGLVQAGGSLRLSCAASGFIFRVYTMGWYRQAPGKERELVAAISYRGGRTYYADSVKGRFTISRDNAKNTVYLQMNSQKPEDTAVYYCAADRVNREFDYWGQGTQVTVSS” the entry was “high polyreactivity”; with “QVQLVESGGGLVQAGGSLRLSCAASGFIFRWYAKGWYRQAPGKERELVATITRSGGSTYYADSVKGRFTSSRDNAKNTVYLQMNSLKPEDTAVYYCNAGYSYKYYYWGQGTQVTVSS”, “high polyreactivity”; with “QVQLVESGGGLVQAGGSLRLSCAASGFIFRWYAMGWYRQAPGKERELVATITGGGSTYYADSVKGRFTISRDNAKNTVYLQMNSLKPEDTAVYYCNARQIWKYSVRDDYWGQGTQVTVSS”, “high polyreactivity”.
With “QVQLVESGGGLVQAGGSLRLSCAASGFIFRWYTMGWYRQAPGKERELVAAISWRSGSTSYADSVMGRFTISRDNAKNTVYFQMNSLKPEDSAGYYCNADYSSFWTSYDYWGQGTQVTVSS” the entry was “high polyreactivity”; with “QVQLVESGGGLVQAGGSLRLSCAASGFIFRYNAMGWYRQAPGKERELVARITSSGGTTYYADSVKGRFTISRDNAKNTVYLQMNSLKPEDTAVYYCAITWRKYYPPYYYWGQGTQVTVSS”, “high polyreactivity”; with “QVQLVESGGGLVQAGGSLRLSCAASGFIFRYNAMGWYRQAPGKESELVAAISSSGTTNYADSVKGRFTISRDNAKNTVYLQMNSLKPEDTAVYYCAARRSYARRFKNSMEYWGEGTQVTVSS”, “high polyreactivity”.
With “QVQLVESGGGLVQAGGSLRLSCAASGFIFRYNAMGWYRQRPGKERELVAVITSGGRTYYADSVKGRFTISRDNAKNTVYLQMNSLKPEDTAFYYCNADSRHRRNYDYWGQGTQVTVSS” the entry was “high polyreactivity”.
Take “QVQLVESGGGLVQAGGSLRLSCAASGFIFRYYALGWYRQAPGKERELVAAISWRGGTTYYADSVKGRFTISRDNAKNTVYLQMQSLKPEDTAVYYCAADWQWDLGPYIYQVEYWGQGTLVTVSS”: the “polyreactivity (PSR sort gate)” value is reported as “high polyreactivity”.
Next, “QVQLVESGGGLVQAGGSLRLSCAASGFIFRYYAMGRYRPAPGKERELVAAISKRGGGTYYADSVKGRFTISRDNAKNTVYLQMNSLKPEDTAVYYCKKDGGYGTGSSREYDSWGQGTQVTVSS”: “high polyreactivity”; “QVQLVESGGGLVQAGGSLRLSCAASGFIFRYYAMGWYRQAPGKERELVAAINASGGRTYYADSVKGRFTISRDNARNTVYFQMNSLKPEDSAVYYCAAYRSYQTFDYWGQGTQVTVSS”: “high polyreactivity”; “QVQLVESGGGLVQAGGSLRLSCAASGFIFRYYAMGWYRQAPGKERELVAAISYSGGSTYYADSVKGRFTISRDTAKNTVYLQMNSLKPEDTAVYYCAAVLRTRDHPQPNYVYWGQGTQVTVSS”: “high polyreactivity”.
With “QVQLVESGGGLVQAGGSLRLSCAASGFIFRYYAMGWYRQAPGKERELVARINKSGGYTYYADSVKGRFTISRDNAKNTVYLQMNSLKPEDTAVYYCNRVRVFSVPFDYWGQGTQVTVSS” the entry was “high polyreactivity”; with “QVQLVESGGGLVQAGGSLRLSCAASGFIFRYYAMGWYRQAPGNERELVAAISYSGGSTYYADSVKGRFTISRDNAKNTVYLQMNSLKPEDTAVYYGAAVLRTRDHPQPNYEYWGQGTQVTVSS”, “high polyreactivity”; with “QVQLVESGGGLVQAGGSLRLSCAASGFIFRYYARGWYRQAPGKERELVAAISSTGGSTSYADSVKGRFTISRDNAKNTVYLQLNSQKPEDTAVYDCAADYWIRRRTYGQLYRPYYYWGQGTQVTVSS”, “high polyreactivity”.
With “QVQLVESGGGLVQAGGSLRLSCAASGFIFRYYTMGWYRQAPGKERELVATITSGGSTYYADSVKGRFTISCDNAKNTVYLQMNSLKPEDTAVYYCAKVRDVLWRFNYWGQGTQVTVSS” the entry was “high polyreactivity”.
For the sequence “QVQLVESGGGLVQAGGSLRLSCAASGFIFSAYSMGWYRPEPGKERELVAAISYSGGTTYYADSVKGRFTISRDNAKNTLYLQMNSLKPEDTAVYYCAAGVGYWGQGTQVTVSS”, the “polyreactivity (PSR sort gate)” value was “high polyreactivity”.
Regarding “QVQLVESGGGLVQAGGSLRLSCAASGFIFSGNAMGWYILAPGKERELVAGIRSLGGTTSYADSVKGRFTISRDNAKNTVYLQMNSMKPEDTAVYYCAAGYGAEFDYWGQGTQVTVSS”, the “polyreactivity (PSR sort gate)” value is reported as “low polyreactivity”.
Next, “QVQLVESGGGLVQAGGSLRLSCAASGFIFSGNAMGWYRQAPGKERELVAAISWSGTSTFYADSVKGRFTISRDNAKNTVYLQMNSLKPEDTAVYYCAAETYYSYWYRPHYDYWGQGTQVTVSS”: “low polyreactivity”; “QVQLVESGGGLVQAGGSLRLSCAASGFIFSGYAMGWYRQAPGKERELVAAITWSGSNTFYADSVKGRFTISRDNPKNTVYLQMNSLKPEDTAVYYCNGVSKYIRSDYYYWGQGTQVTVSS”: “high polyreactivity”.
Next, “QVQLVESGGGLVQAGGSLRLSCAASGFIFSGYAMGWYRQAPGKERELVASISWSGARTNYADSVKGRFTISRDNAKNTVYLQMNSLKPEDTAVYYCAAQVGRGYEVYPVYKYGYWGQGTQVTVSS”: “high polyreactivity”; “QVQLVESGGGLVQAGGSLRLSCAASGFIFSGYAMGWYRQAPGKEREVVATISRGGSTTYYADSVKGRFTISRDNAKNTVYLQKTSLKPEETGAYYCATVGYPYRPVYIRRPYRYNSWGQGTQVTVSS”: “high polyreactivity”; “QVQLVESGGGLVQAGGSLRLSCAASGFIFSGYNMGWYRQAPGKERELVAAITKRGGRTYYADSVKWRFTISRDNAKNTVYLQMNSLKPEDTAVYYCNVDVKVYSDETTDGDYWGQGTQVTVSS”: “high polyreactivity”.
In the case of “QVQLVESGGGLVQAGGSLRLSCAASGFIFSHYAMGWYRQAPGKERELVAAIRSGGTTNYADSVKGRFTISRDNAKHTVYLQMNSLKPEDTAVYYCAASSRRSWTYDYWGQGTQVTVSS”, the “polyreactivity (PSR sort gate)” value is listed as “high polyreactivity”.
With “QVQLVESGGGLVQAGGSLRLSCAASGFIFSIYAMGWYRQAPGKERELVAAISKSGGRTYYADSVKGRFTISRDNAKNTVYLQMNSLKPEDTAVYYCAVDPYYKYDYWGQGTQVTVSS” the entry was “high polyreactivity”.
With “QVQLVESGGGLVQAGGSLRLSCAASGFIFSNYAMGWYRQAPGKERELVAAISWSGGNTYYADSVKGRFTISRDNAKNTFYLQMNSLKPEDTAVYYCNRVKAYYRWFLPRYQYNYWGQGTQVTVSS”, the “polyreactivity (PSR sort gate)” value is “high polyreactivity”.
Next, “QVQLVESGGGLVQAGGSLRLSCAASGFIFSPYAMGWYRQAPGKERELVAAISSGVGTRTYYADSVKGRFTISRDNAKNNVYLQINSLKPEDTAVYYCAARIPAWRAAERGGYWGQGTQVTVSS”: “high polyreactivity”.
